Results taken from paper PMC4786644, “The HMGB1 protein induces a metabolic type of tumour cell death by blocking aerobic respiration” (Nature Communications, 2016).

Target: T1, human pyruvate kinase isoform M2 (PK M2) (human, UniProt P14618-1 1-531)
T1 construct: Pyruvate kinase isoform M2, human; used at 2 uM in solution
Experiment: ultrafiltration; equimolar HMGB1 and PK M2 (2 uM each) mixed in 300 ul, filtrated (14000 g, 4 C) to 15 ul in an Amicon Ultra 0.5 ml 30 k device; filtrate and retentate analysed by Western blot; HMGB1 and PKM2 also analysed alone
Conditions: both partners purified

T1 sequence (P14618 whole entry, canonical isoform): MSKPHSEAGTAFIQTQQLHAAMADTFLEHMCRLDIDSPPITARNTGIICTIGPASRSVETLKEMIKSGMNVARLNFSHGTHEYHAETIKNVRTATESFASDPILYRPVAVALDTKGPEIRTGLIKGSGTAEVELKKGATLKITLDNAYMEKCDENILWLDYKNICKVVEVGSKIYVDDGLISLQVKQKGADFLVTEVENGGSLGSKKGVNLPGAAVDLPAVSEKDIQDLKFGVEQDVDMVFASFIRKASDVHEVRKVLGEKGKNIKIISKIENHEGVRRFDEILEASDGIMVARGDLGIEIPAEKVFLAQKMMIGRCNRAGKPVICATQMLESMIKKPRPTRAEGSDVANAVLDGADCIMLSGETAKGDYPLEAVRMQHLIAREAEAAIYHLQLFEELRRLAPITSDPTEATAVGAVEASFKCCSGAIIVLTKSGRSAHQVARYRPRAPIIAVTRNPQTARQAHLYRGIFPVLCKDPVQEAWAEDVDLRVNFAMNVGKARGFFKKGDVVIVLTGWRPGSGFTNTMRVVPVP

binding result: binds
B1: recombinant human HMGB1 protein (high-mobility group box 1) (natural protein, UniProt P09429 1-215, looked up)
chain: MGKGDPKKPRGKMSSYAFFVQTCREEHKKKHPDASVNFSEFSKKCSERWKTMSAKEKGKFEDMAKADKARYEREMKTYIPPKGETKKKFKDPNAPKRPPSAFFLFCSEYRPKIKGEHPGLSIGDVAKKLGEMWNNTAADDKQPYEKKAAKLKEKYEKDIAAYRAKGKPDAAKKGVVKAEKSKKKKEEEEDEEDEEDEEEEEDEEDEDEEEDDDDE
notes: High-mobility group box 1 protein, human, recombinant; the only recombinant human HMGB1 named is from Sigma-Aldrich; also called rhHMGB1; source: bought: Sigma-Aldrich (recombinant human HMGB1; human HMGB1 protein produced in E. coli)
